Assay results: the supplement of paper PMC12855868

B1: library; numbered along this chain (parent)
chain: MAAAGGARLLRAASAVLGGPAGRWLHHAGSRAGSSGLLRNRGPGGSAEASRSLSVSARARSSSEDKITVHFINRDGETLTTKGKVGDSLLDVVVENNLDIDGFGACEGTLACSTCHLIFEDHIYEKLDAITDEENDMLDLAYGLTDRSRLGCQICLTKSMDNMTVRVPETVADARQSIDVGKTS

Variants of: B1
Assay: scaled log2 fold change in cell abundance, elesclomol vs control (0 = silent mean, 1 = nonsense mean) (scaled log2 ratio); higher = higher viability under elesclomol (loss of FDX1 cuproptosis function)
Conditions: glucose 10 mM
Experimental: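 Deep mutational scan of full-length human FDX1: a pooled saturation-mutagenesis ORF library (every residue 2-184 mutated to all 19 amino acids plus stop, and silent codons where available) was expressed by lentivirus in FDX1-knockout ABC1 (14 days) or HEK293T (11 days) cells grown with elesclomol (ES) or DMSO control. Variant abundance came from ORF sequencing. The log2 fold change (ES vs control, mean of duplicates) was centred on the silent-variant mean (0) and scaled to the nonsense-variant mean (1). Higher values mean greater viability under ES, i.e. loss of FDX1 function in cuproptosis.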

[1] = with ABC1 FDX1 KO, elesclomol 5 nM, 14 days
[2] = with HEK293T FDX1 KO, elesclomol 40 nM, 11 days
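Note: variant abundance is its share of total variant reads in each endpoint sample, from next-generation sequencing of the integrated ORF PCR-amplified out of genomic DNA.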

| Variant | scaled log2 fold change [1] | scaled log2 fold change [2] |
| --- | --- | --- |
| R39S | 0.489 | 0.0758 |
| R39M | 0.188 | 0.344 |
| R39A | 0.0642 | -0.565 |
| R39D | -0.217 | 1.07 |
| R39Y | 0.0455 | -0.31 |
| R39V | 0.374 | -0.208 |
| R39G | 0.577 | 0.061 |
| R39T | -0.117 | 0.0293 |
| R39I | -0.111 | 0.989 |
| R39K | -0.687 | -0.451 |
| R39H | 0.0443 | -0.509 |
| R39N | -0.39 | -0.278 |
| R39Q | -0.432 | 0.178 |
| R39P | -0.972 | -0.296 |
| R39E | -0.217 | 0.936 |
| R39C | -0.483 | 0.689 |
| R39W | 0.0801 | 0.13 |
| R39F | 0.0891 | -0.0588 |
| R39L | -0.142 | -0.141 |
| S46H | 0.263 | 1.09 |
| S46Y | 0.737 | 0.775 |
| S46P | 0.0875 | 0.866 |
| S46G | 0.864 | 0.651 |
| S46Q | 0.68 | 0.186 |

| Variant | scaled log2 fold change [1] | scaled log2 fold change [2] |
| --- | --- | --- |
| S46C | 0.738 | 0.494 |
| S46R | 0.93 | 0.639 |
| S46K | 0.678 | 0.519 |
| S46M | 0.376 | 0.185 |
| S46A | 0.558 | 0.128 |
| S46D | 0.694 | 0.458 |
| S46T | 0.617 | 0.182 |
| S46E | 0.844 | 0.526 |
| S46F | 0.279 | 0.769 |
| S46L | 0.572 | 0.692 |
| S46V | 0.489 | 0.421 |
| S46I | 0.589 | 0.715 |
| S46N | 0.338 | 0.643 |
| R41N | 0.199 | -0.371 |
| R41P | -0.0791 | -0.655 |
| R41I | -0.144 | 0.109 |
| R41D | 0.137 | -0.209 |
| R41A | 0.281 | 0.851 |
| R41K | 0.264 | -0.114 |
| R41M | 0.173 | 0.0788 |
| R41W | 0.107 | 0.227 |
| R41E | 0.0687 | -0.798 |
| R41V | -0.196 | -0.0931 |
| R41F | 0.347 | -0.469 |

| Variant | scaled log2 fold change [1] | scaled log2 fold change [2] |
| --- | --- | --- |
| R41G | -0.751 | 0.252 |
| R41H | 0.145 | -0.535 |
| R41Y | -0.195 | -0.051 |
| R41T | 0.311 | 0.274 |
| R41L | 0.167 | 0.278 |
| R41S | -0.22 | 0.473 |
| R41Q | -0.31 | 0.698 |
| R41C | -0.0654 | -0.255 |
| R51L | 0.0529 | -0.247 |
| R51Q | -1.02 | -0.603 |
| R51G | 0.508 | -0.712 |
| R51F | 0.269 | 0.664 |
| R51M | -0.235 |  |
| R51E | -0.316 | -0.168 |
| R51D | -0.0949 | -0.181 |
| R51N | -0.079 | 1.03 |
| R51T | 0.0589 | 0.546 |
| R51K | -0.103 | -1.33 |
| R51H | -0.0671 | -0.14 |
| R51S | 0.00287 | -0.516 |
| R51A | 0.176 | -0.204 |
| R51P | 0.212 |  |
| R51C | 0.374 | -0.169 |
| G44P | -0.094 | 0.309 |

| Variant | scaled log2 fold change [1] | scaled log2 fold change [2] |
| --- | --- | --- |
| G44F | -0.255 | -0.00392 |
| G44L | -0.1 | 0.155 |
| G44T | -0.238 | 0.0578 |
| G44E | 0.197 | 1.12 |
| G44S | 0.141 | -0.291 |
| G44K | 0.187 | -0.0828 |
| G44Q | 0.137 | 0.433 |
| G44Y | 0.198 | -0.79 |
| G44D | -0.0132 | -0.461 |
| G44V | -0.00617 | -0.478 |
| G44C | -0.366 | 0.858 |
| G44M | 0.13 | 0.703 |
| G44A | 0.246 | 2.06 |
| G44H | -0.319 |  |
| G44W | 0.253 | 0.857 |
| G44I | 0.034 | 0.323 |
| G44N | 0.0836 | -0.289 |
| G44R | 0.286 | 0.0773 |
| A49R | 0.181 |  |
| A49Q | 0.504 | 0.944 |
| A49D | 0.201 |  |
| A49S | 0.123 | 1.82 |
| A49C | 0.313 | -0.749 |
| A49Y | 0.29 | -1.02 |

| Variant | scaled log2 fold change [1] | scaled log2 fold change [2] |
| --- | --- | --- |
| A49I | 0.653 | 1.22 |
| A49M | -0.695 | -1.02 |
| A49T | 0.0135 |  |
| A49V | -0.0734 |  |
| A49E | 0.155 |  |
| A49G | -0.302 | 0.424 |
| A49P | 0.382 | 0.203 |
| A49H | 0.394 | 0.441 |
| A49L | -1.05 | -0.62 |
| A49W | 0.372 | -0.679 |
| A49K | 0.256 | -0.293 |
| A49N | -0.529 | -0.853 |
| A49F | 0.00966 | -0.0173 |
| G42P | 0.28 | -0.219 |
| G42V | 0.365 | -0.32 |
| G42R | 0.1 | -0.362 |
| G42D | -0.168 | 0.162 |
| G42E | -0.302 | 0.67 |
| G42W | 0.29 | 1 |
| G42M | 0.0351 | 0.622 |
| G42Y | 0.307 |  |
| G42K | 0.0974 | 0.00685 |
